Assay results taken from the supplement of paper PMC9112550, “Optimization of the antimicrobial peptide Bac7 by deep mutational scanning” (BMC Biology, 2022).

System: Escherichia coli TOP10
Test: shrunken log2 fold change of peptide-encoding DNA abundance (4.5 h post-induction vs induction); higher = less antimicrobial activity (less host growth inhibition)
Settings: time post-induction: 4.5 h; library: site-saturation at positions 5, 18, 19, 20
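Further: peptides expressed intracellularly from a pBAD plasmid library in pooled LB shake-flask culture, induced with 0.3% L-arabinose, DNA abundance read by NGS, three biological replicates, DESeq2 with apeglm shrinkage.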

Sequence | shrunken log2 fold change
RRIRFRPPRLPRPRPRPLECPRP | -0.0348
RRIRIRPPRLPRPRPRPQILPRP | 0.0356
RRIRFRPPRLPRPRPRPGAPPRP | 0.54
RRIRDRPPRLPRPRPRPYMMPRP | -0.297
RRIRHRPPRLPRPRPRPMNMPRP | -0.00968
RRIRCRPPRLPRPRPRPYWMPRP | -1.07
RRIRDRPPRLPRPRPRPRLVPRP | 0.314
RRIRERPPRLPRPRPRPIWDPRP | -0.254
RRIRQRPPRLPRPRPRPCSMPRP | -0.273
RRIRFRPPRLPRPRPRPESAPRP | 0.428
RRIRGRPPRLPRPRPRPSENPRP | 0.359
RRIRKRPPRLPRPRPRPRVHPRP | 0.252
RRIRERPPRLPRPRPRPRWMPRP | 0.0378
RRIRFRPPRLPRPRPRPHCYPRP | 0.149
RRIRDRPPRLPRPRPRPKMRPRP | -0.013
RRIRKRPPRLPRPRPRPRFIPRP | 0.346
RRIRCRPPRLPRPRPRPFHSPRP | -0.458
RRIRKRPPRLPRPRPRPDLGPRP | 0.0986
RRIRWRPPRLPRPRPRPVMMPRP | -0.385
RRIRWRPPRLPRPRPRPVKVPRP | -0.0471
RRIRLRPPRLPRPRPRPVGRPRP | 0.215
RRIRSRPPRLPRPRPRPWSGPRP | -0.0339
RRIRSRPPRLPRPRPRPGSMPRP | -0.201

Sequence | shrunken log2 fold change
RRIRPRPPRLPRPRPRPPYDPRP | -0.173
RRIRKRPPRLPRPRPRPTDSPRP | -0.0461
RRIRYRPPRLPRPRPRPENIPRP | -0.105
RRIRGRPPRLPRPRPRPEFWPRP | 2.24
RRIRPRPPRLPRPRPRPQHWPRP | 0.265
RRIRQRPPRLPRPRPRPTIPPRP | -0.205
RRIRKRPPRLPRPRPRPGYCPRP | -0.275
RRIRGRPPRLPRPRPRPIHQPRP | -0.0704
RRIRFRPPRLPRPRPRPTIYPRP | -0.689
RRIRIRPPRLPRPRPRPNVRPRP | 0.0422
RRIRDRPPRLPRPRPRPVWDPRP | 0.107
RRIRFRPPRLPRPRPRPSIGPRP | -0.139
RRIRFRPPRLPRPRPRPMNFPRP | -0.283
RRIRFRPPRLPRPRPRPNAPPRP | 0.0925
RRIRKRPPRLPRPRPRPTAIPRP | 0.444
RRIRNRPPRLPRPRPRPAQPPRP | -0.0398
RRIRPRPPRLPRPRPRPYTSPRP | -0.261
RRIRHRPPRLPRPRPRPMCMPRP | 0.201
RRIRPRPPRLPRPRPRPEELPRP | 0.0725
RRIRFRPPRLPRPRPRPYRHPRP | -1.08
RRIRERPPRLPRPRPRPPMDPRP | -0.214
RRIRGRPPRLPRPRPRPNYMPRP | -0.0439
RRIRTRPPRLPRPRPRPQAHPRP | -0.452

Sequence | shrunken log2 fold change
RRIRIRPPRLPRPRPRPFAGPRP | 0.0391
RRIRARPPRLPRPRPRPRRQPRP | 0.453
RRIRDRPPRLPRPRPRPRHIPRP | -0.25
RRIRPRPPRLPRPRPRPFHNPRP | -0.541
RRIRERPPRLPRPRPRPVRDPRP | 0.337
RRIRDRPPRLPRPRPRPISSPRP | 0.00884
RRIRTRPPRLPRPRPRPQMHPRP | -0.426
RRIRGRPPRLPRPRPRPNYTPRP | -0.338
RRIRDRPPRLPRPRPRPGIQPRP | -0.148
RRIRDRPPRLPRPRPRPKITPRP | -0.375
RRIRCRPPRLPRPRPRPPGSPRP | 0.379
RRIRPRPPRLPRPRPRPETDPRP | 0.229
RRIRRRPPRLPRPRPRPRHEPRP | 0.148
RRIRCRPPRLPRPRPRPPWTPRP | 0.224
RRIRPRPPRLPRPRPRPTPQPRP | 0.497
RRIRLRPPRLPRPRPRPLHVPRP | -0.173
RRIRNRPPRLPRPRPRPVAWPRP | -0.01
RRIRYRPPRLPRPRPRPLDPPRP | -0.307
RRIRDRPPRLPRPRPRPTHTPRP | -0.311
RRIRSRPPRLPRPRPRPMKFPRP | -0.0589
RRIRQRPPRLPRPRPRPVFQPRP | 0.0308
RRIRHRPPRLPRPRPRPKLKPRP | -0.0873
RRIRGRPPRLPRPRPRPAIPPRP | -0.0508

Sequence | shrunken log2 fold change
RRIRERPPRLPRPRPRPCRCPRP | 0.00968
RRIRRRPPRLPRPRPRPAGTPRP | -0.0331
RRIRWRPPRLPRPRPRPNEMPRP | -0.078
RRIRIRPPRLPRPRPRPPKFPRP | -0.294
RRIRERPPRLPRPRPRPCFTPRP | -0.453
RRIRVRPPRLPRPRPRPTIPPRP | -0.0501
RRIRIRPPRLPRPRPRPARWPRP | 0.412
RRIRARPPRLPRPRPRPVESPRP | 0.986
RRIRYRPPRLPRPRPRPLPPPRP | 0.0954
RRIRMRPPRLPRPRPRPFYSPRP | -0.0137
RRIRFRPPRLPRPRPRPTKLPRP | -0.494
RRIRFRPPRLPRPRPRPQGRPRP | 0.19
RRIRWRPPRLPRPRPRPAHGPRP | 0.707
RRIRYRPPRLPRPRPRPSECPRP | -0.347
RRIRHRPPRLPRPRPRPITSPRP | -0.401
RRIRTRPPRLPRPRPRPLQCPRP | 0.174
RRIRRRPPRLPRPRPRPPCDPRP | 1.03
RRIRLRPPRLPRPRPRPHDVPRP | 0.0205
RRIRWRPPRLPRPRPRPCPLPRP | -0.247
RRIRARPPRLPRPRPRPQYYPRP | -0.452
RRIRNRPPRLPRPRPRPAHKPRP | 0.00838
RRIRWRPPRLPRPRPRPADMPRP | 0.0185
